These results are taken from patent US20140056920A1 (Sanofi, published 2014).

The experiment concerns the target T1, mouse IL-4Rα (mouse, UniProt P16382 26-233, limits assumed).
T1 construct: also called mouse IL-4Rα protein; mIL-4Rα
T1 sequence (looked up): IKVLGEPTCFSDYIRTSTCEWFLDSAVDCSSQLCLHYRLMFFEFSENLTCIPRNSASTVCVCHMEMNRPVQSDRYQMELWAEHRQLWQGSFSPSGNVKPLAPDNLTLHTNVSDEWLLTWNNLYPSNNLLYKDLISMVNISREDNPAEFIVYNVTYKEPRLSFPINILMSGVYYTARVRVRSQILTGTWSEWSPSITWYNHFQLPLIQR
The experiment is described as follows: not described (stated in Materials and Methods of Example 4).

B1: mAb1 (human anti-IL-4R antibody H1H098-b) (antibody, V domains shown)
VH: EVQLVESGGGLEQPGGSLRLSCAGSGFTFRDYAMTWVRQAPGKGLEWVSSISGSGGNTYYADSVKGRFTISRDNSKNTLYLQMNSLRAEDTAVYYCAKDRLSITIRPRYYGLDVWGQGTTVTVS
VL: DIVMTQSPLSLPVTPGEPASISCRSSQSLLYSIGYNYLDWYLQKSGQSPQLLIYLGSNRASGVPDRFSGSGSGTDFTLKISRVEAEDVGFYYCMQALQTPYTFGQGTKLEIK
notes: also called anti-IL-4R antibody mAb1; REGN668/SAR231893
As for B1, the binding result is listed as “no binding”.
